IC50 data for twelve variants are collected here from paper PMC4077652, “An Unstable Th Epitope of P. falciparum Fosters Central Memory T Cells and Anti-CS Antibody Responses” (PLoS ONE, 2014).

To fix the notation:
B1: unnamed (parent)
chain 1: QNSLSTEWSPCSVT
chain 2: not shown
chain 3: not shown

In the assay the parent is B1. In words: binding inhibition (competition) assay with biotin-labeled HA 306-318. Particulars: peptides tested at 0 to 100 µM, read off a plot.
What is called IC50 is the concentration that inhibits the measured activity by half. In the case of chain 1 P10A, the IC50 is 7800 nM.

Turning to chain 1 S12A, the IC50 stood at 800 nM.

Regarding chain 1 W8A, the IC50 turned out to be 1500 nM.

In the case of chain 1 E7A, the IC50 turned out to be 3500 nM.

As to chain 1 S3A, the IC50 turned out to be 1100 nM.

On to chain 1 T6A, for which the half-inhibitory concentration (IC50) is 1300 nM.

Take chain 1 Q1A: the IC50 amounted to 1200 nM.

chain 1 S5A: the IC50 came out at 950 nM.

In the case of chain 1 T14A, the IC50 is 800 nM.

Turning to chain 1 C11A, the IC50 was found to be 800 nM.

Take chain 1 V13A: the IC50 amounted to 500 nM.

Take chain 1 N2A: the IC50 was 2700 nM.
